Test results reported in PMC9482650, “Quantitative fragmentomics allow affinity mapping of interactomes” (Nature Communications, 2022).

Experiments:
Assay in all cases: holdup assay
Set-up in all cases: key: below the threshold = too weak to quantify, mostly under pKd 3.1 to 4
PDZD2_2, O15018 = target: T1, PDZD2_2, O15018
T1 sequence (O15018 329-429, limits assumed, looked up): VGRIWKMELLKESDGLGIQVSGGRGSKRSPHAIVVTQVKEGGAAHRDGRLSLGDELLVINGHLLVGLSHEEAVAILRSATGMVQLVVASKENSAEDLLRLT

PDZRN3_1, Q9UPQ7 = target: T2, PDZRN3_1, Q9UPQ7
T2 sequence (Q9UPQ7 244-349, limits assumed, looked up): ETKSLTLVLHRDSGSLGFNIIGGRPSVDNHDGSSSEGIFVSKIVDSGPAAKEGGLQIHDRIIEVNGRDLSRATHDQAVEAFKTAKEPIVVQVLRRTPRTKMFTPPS

Inadl_10, Q8NI35 = target: Inadl_10, Q8NI35
LAP2, Q96RT1 = target: LAP2, Q96RT1
Inadl_8, Q8NI35 = target: Inadl_8, Q8NI35
PICK1, Q9NRD5 = target: PICK1, Q9NRD5
SHANK1, Q9Y566 = target: T3, SHANK1, Q9Y566
T3 sequence (Q9Y566 658-767, limits assumed, looked up): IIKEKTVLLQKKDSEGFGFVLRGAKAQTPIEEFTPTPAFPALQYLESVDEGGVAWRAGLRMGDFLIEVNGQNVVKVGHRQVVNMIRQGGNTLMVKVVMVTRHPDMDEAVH

LNX2_3, Q8N448 = target: T4, LNX2_3, Q8N448
T4 sequence (Q8N448 463-564, limits assumed, looked up): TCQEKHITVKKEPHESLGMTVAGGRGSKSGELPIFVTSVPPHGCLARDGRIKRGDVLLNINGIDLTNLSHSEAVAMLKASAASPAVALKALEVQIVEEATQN

GRIP1_2, Q9Y3R0 = target: T5, GRIP1_2, Q9Y3R0
T5 sequence (Q9Y3R0 145-248, limits assumed, looked up): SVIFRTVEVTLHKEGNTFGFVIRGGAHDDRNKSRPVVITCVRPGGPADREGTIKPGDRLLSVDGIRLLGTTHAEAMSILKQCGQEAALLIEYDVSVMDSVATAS

SNTB1, Q13884 = target: T6, SNTB1, Q13884
T6 sequence (Q13884 107-205, limits assumed, looked up): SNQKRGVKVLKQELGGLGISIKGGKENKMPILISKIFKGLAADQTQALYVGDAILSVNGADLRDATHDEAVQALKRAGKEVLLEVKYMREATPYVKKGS

DFNB31_2, Q9P202 = target: T7, DFNB31_2, Q9P202
T7 sequence (Q9P202 274-371, limits assumed, looked up): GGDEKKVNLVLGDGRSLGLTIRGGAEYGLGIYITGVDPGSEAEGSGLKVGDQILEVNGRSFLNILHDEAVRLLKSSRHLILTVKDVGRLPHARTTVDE

PARD3_3, Q8TEW0 = target: PARD3_3, Q8TEW0
Inadl_4, Q8NI35 = target: Inadl_4, Q8NI35
HTRA1, Q92743 = target: HTRA1, Q92743
TJP2_1, Q9UDY2 = target: TJP2_1, Q9UDY2
Inadl_5, Q8NI35 = target: Inadl_5, Q8NI35
GRASP, Q7Z6J2 = target: GRASP, Q7Z6J2
LIN7B, Q9HAP6 = target: T8, LIN7B, Q9HAP6
T8 sequence (Q9HAP6 88-185, limits assumed, looked up): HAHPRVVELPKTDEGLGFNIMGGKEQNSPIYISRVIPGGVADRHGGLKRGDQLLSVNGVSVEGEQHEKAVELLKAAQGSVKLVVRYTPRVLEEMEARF

Inadl_3, Q8NI35 = target: Inadl_3, Q8NI35
SCRIB_2, Q14160 = target: SCRIB_2, Q14160
MAGI3_2, Q5TCQ9 = target: MAGI3_2, Q5TCQ9
GRIP2_3, Q9C0E4 = target: GRIP2_3, Q9C0E4
TX1BP3, O14907 = target: T9, TX1BP3, O14907
T9 sequence (O14907 10-122, limits assumed, looked up): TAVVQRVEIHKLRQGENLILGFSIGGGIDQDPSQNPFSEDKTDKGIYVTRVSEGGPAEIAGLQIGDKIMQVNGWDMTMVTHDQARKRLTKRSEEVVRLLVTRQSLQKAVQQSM

AHNAK1, Q09666 = target: AHNAK1, Q09666
PTPN13_1, Q12923 = target: T10, PTPN13_1, Q12923
T10 sequence (Q12923 1088-1188, limits assumed, looked up): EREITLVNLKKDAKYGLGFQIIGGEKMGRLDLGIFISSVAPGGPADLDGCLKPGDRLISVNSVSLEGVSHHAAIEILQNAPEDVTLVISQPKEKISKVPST

ARHGEF11, O15085 = target: T11, ARHGEF11, O15085
T11 sequence (O15085 42-136, limits assumed, looked up): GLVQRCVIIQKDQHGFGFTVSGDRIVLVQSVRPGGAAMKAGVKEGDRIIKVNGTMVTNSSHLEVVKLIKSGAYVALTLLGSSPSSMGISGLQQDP

[1] = plain residues with an end cap or a label only (N-terminal biotin on a linker: ado-ado)
[2] = modified: phospho on T at position -2 from the C-terminal residue

Chain of GRASP, Q7Z6J2 (Q7Z6J2 96-193): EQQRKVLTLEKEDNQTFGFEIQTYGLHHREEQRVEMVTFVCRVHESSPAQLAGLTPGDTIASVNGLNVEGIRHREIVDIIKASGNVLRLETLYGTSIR
Chain of Inadl_3, Q8NI35 (Q8NI35 359-469): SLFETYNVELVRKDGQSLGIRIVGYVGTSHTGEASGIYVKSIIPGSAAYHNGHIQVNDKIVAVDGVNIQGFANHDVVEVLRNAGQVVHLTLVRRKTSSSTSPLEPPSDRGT
Chain of AHNAK1, Q09666 (Q09666 4-100): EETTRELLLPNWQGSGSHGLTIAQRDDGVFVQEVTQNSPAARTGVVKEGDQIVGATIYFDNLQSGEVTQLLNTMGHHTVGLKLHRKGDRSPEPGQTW
Chain of Inadl_5, Q8NI35 (Q8NI35 673-780): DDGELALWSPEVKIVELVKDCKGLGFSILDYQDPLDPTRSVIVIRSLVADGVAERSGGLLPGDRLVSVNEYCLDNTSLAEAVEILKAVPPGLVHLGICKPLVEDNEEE
Chain of Inadl_10, Q8NI35 (Q8NI35 1673-1763): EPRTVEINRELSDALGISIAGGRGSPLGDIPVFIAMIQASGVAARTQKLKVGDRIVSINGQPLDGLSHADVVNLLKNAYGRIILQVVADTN
Chain of TJP2_1, Q9UDY2 (Q9UDY2 24-128): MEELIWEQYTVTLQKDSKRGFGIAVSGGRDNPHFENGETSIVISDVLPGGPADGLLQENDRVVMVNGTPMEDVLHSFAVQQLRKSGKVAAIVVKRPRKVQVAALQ
Chain of GRIP2_3, Q9C0E4 (Q9C0E4 238-339): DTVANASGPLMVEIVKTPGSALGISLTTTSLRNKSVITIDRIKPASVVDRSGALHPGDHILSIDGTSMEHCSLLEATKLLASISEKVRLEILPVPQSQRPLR
Chain of SCRIB_2, Q14160 (Q14160 857-960): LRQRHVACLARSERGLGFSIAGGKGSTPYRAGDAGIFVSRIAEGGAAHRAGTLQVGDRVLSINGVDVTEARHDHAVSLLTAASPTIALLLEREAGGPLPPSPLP
Chain of Inadl_4, Q8NI35 (Q8NI35 547-651): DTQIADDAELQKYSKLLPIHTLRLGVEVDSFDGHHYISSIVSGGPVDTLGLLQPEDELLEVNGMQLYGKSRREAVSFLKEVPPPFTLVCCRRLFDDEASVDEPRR
Chain of MAGI3_2, Q5TCQ9 (Q5TCQ9 398-503): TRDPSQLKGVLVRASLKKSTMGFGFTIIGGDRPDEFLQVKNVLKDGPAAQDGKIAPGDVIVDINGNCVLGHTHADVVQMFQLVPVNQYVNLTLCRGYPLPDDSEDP
Chain of LAP2, Q96RT1 (Q96RT1 other isoform, or with tags, fused parts or gaps): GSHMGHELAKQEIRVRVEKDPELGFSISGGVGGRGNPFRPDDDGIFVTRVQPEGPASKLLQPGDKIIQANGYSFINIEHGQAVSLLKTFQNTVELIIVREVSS
Chain of PARD3_3, Q8TEW0 (Q8TEW0 582-685): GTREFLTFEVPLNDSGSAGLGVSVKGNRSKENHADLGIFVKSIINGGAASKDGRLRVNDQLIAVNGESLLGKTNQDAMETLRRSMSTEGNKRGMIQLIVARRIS
Chain of PICK1, Q9NRD5 (Q9NRD5 17-115): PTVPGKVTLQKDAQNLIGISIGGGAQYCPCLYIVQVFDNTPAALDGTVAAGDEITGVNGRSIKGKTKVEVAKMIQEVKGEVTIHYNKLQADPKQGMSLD
Chain of Inadl_8, Q8NI35 (Q8NI35 1425-1530): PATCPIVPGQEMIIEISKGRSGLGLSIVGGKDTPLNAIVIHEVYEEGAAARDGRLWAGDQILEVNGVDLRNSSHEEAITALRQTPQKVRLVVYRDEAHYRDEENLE
Chain of HTRA1, Q92743 (Q92743 360-477): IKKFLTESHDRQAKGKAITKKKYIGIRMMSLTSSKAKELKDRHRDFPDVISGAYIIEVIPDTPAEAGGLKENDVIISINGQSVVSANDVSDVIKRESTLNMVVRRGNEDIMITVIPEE

## AQRARSPSDV [GPR12, P47775]
PDZD2_2, O15018; [1]
  pKd: 4.71
PDZRN3_1, Q9UPQ7; [1]
  pKd: below the threshold
Inadl_10, Q8NI35; [1]
  pKd: below the threshold
LAP2, Q96RT1; [1]
  pKd: 3.51
Inadl_8, Q8NI35; [1]
  pKd: 4.6
PICK1, Q9NRD5; [1]
  pKd: 3.99
SHANK1, Q9Y566; [1]
  pKd: below the threshold
LNX2_3, Q8N448; [1]
  pKd: below the threshold
GRIP1_2, Q9Y3R0; [1]
  pKd: below the threshold
SNTB1, Q13884; [1]
  pKd: below the threshold
DFNB31_2, Q9P202; [1]
  pKd: below the threshold
PARD3_3, Q8TEW0; [1]
  pKd: below the threshold
Inadl_4, Q8NI35; [1]
  pKd: below the threshold
HTRA1, Q92743; [1]
  pKd: below the threshold
TJP2_1, Q9UDY2; [1]
  pKd: below the threshold
Inadl_5, Q8NI35; [1]
  pKd: 3.85
GRASP, Q7Z6J2; [1]
  pKd: below the threshold
LIN7B, Q9HAP6; [1]
  pKd: 3.75
Inadl_3, Q8NI35; [1]
  pKd: below the threshold
SCRIB_2, Q14160; [1]
  pKd: below the threshold
MAGI3_2, Q5TCQ9; [1]
  pKd: 3.5
GRIP2_3, Q9C0E4; [1]
  pKd: below the threshold
TX1BP3, O14907; [1]
  pKd: below the threshold
AHNAK1, Q09666; [1]
  pKd: below the threshold
PTPN13_1, Q12923; [1]
  pKd: below the threshold
ARHGEF11, O15085; [1]
  pKd: below the threshold

## KKMLQRRTLL [OR8G1, Q15617]
PDZD2_2, O15018; [1]
  pKd: below the threshold
PDZRN3_1, Q9UPQ7; [1]
  pKd: 3.6
Inadl_10, Q8NI35; [1]
  pKd: below the threshold
LAP2, Q96RT1; [1]
  pKd: below the threshold
Inadl_8, Q8NI35; [1]
  pKd: 3.55
PICK1, Q9NRD5; [1]
  pKd: 3.99
SHANK1, Q9Y566; [1]
  pKd: 4.71
LNX2_3, Q8N448; [1]
  pKd: below the threshold
GRIP1_2, Q9Y3R0; [1]
  pKd: below the threshold
SNTB1, Q13884; [1]
  pKd: 3.64
DFNB31_2, Q9P202; [1]
  pKd: below the threshold
PARD3_3, Q8TEW0; [1]
  pKd: below the threshold
Inadl_4, Q8NI35; [1]
  pKd: below the threshold
HTRA1, Q92743; [1]
  pKd: below the threshold
TJP2_1, Q9UDY2; [1]
  pKd: 4.32
Inadl_5, Q8NI35; [1]
  pKd: below the threshold
GRASP, Q7Z6J2; [1]
  pKd: 5.05
LIN7B, Q9HAP6; [1]
  pKd: below the threshold
Inadl_3, Q8NI35; [1]
  pKd: below the threshold
SCRIB_2, Q14160; [1]
  pKd: below the threshold
MAGI3_2, Q5TCQ9; [1]
  pKd: 4.55
GRIP2_3, Q9C0E4; [1]
  pKd: below the threshold
TX1BP3, O14907; [1]
  pKd: 3.76
AHNAK1, Q09666; [1]
  pKd: below the threshold
PTPN13_1, Q12923; [1]
  pKd: below the threshold
ARHGEF11, O15085; [1]
  pKd: 3.89

## PYSESDDDWC [CACNA1A, O00555]
PDZD2_2, O15018; [1]
  pKd: 5.3
PDZRN3_1, Q9UPQ7; [1]
  pKd: below the threshold
Inadl_10, Q8NI35; [1]
  pKd: below the threshold
LAP2, Q96RT1; [1]
  pKd: 3.87
Inadl_8, Q8NI35; [1]
  pKd: below the threshold
PICK1, Q9NRD5; [1]
  pKd: below the threshold
SHANK1, Q9Y566; [1]
  pKd: below the threshold
LNX2_3, Q8N448; [1]
  pKd: below the threshold
GRIP1_2, Q9Y3R0; [1]
  pKd: 3.62
SNTB1, Q13884; [1]
  pKd: below the threshold
DFNB31_2, Q9P202; [1]
  pKd: below the threshold
PARD3_3, Q8TEW0; [1]
  pKd: 3.89
Inadl_4, Q8NI35; [1]
  pKd: below the threshold
HTRA1, Q92743; [1]
  pKd: 4.53
TJP2_1, Q9UDY2; [1]
  pKd: 3.64
Inadl_5, Q8NI35; [1]
  pKd: below the threshold
GRASP, Q7Z6J2; [1]
  pKd: below the threshold
LIN7B, Q9HAP6; [1]
  pKd: 3.9
Inadl_3, Q8NI35; [1]
  pKd: below the threshold
SCRIB_2, Q14160; [1]
  pKd: below the threshold
MAGI3_2, Q5TCQ9; [1]
  pKd: below the threshold
GRIP2_3, Q9C0E4; [1]
  pKd: below the threshold
TX1BP3, O14907; [1]
  pKd: below the threshold
AHNAK1, Q09666; [1]
  pKd: below the threshold
PTPN13_1, Q12923; [1]
  pKd: below the threshold
ARHGEF11, O15085; [1]
  pKd: 3.51

## QSGLYESEEL [MYOT, Q9UBF9]
PDZD2_2, O15018; [1]
  pKd: below the threshold
PDZRN3_1, Q9UPQ7; [1]
  pKd: below the threshold
Inadl_10, Q8NI35; [1]
  pKd: below the threshold
LAP2, Q96RT1; [1]
  pKd: 3.9
Inadl_8, Q8NI35; [1]
  pKd: below the threshold
PICK1, Q9NRD5; [1]
  pKd: below the threshold
SHANK1, Q9Y566; [1]
  pKd: 3.72
LNX2_3, Q8N448; [1]
  pKd: below the threshold
GRIP1_2, Q9Y3R0; [1]
  pKd: below the threshold
SNTB1, Q13884; [1]
  pKd: below the threshold
DFNB31_2, Q9P202; [1]
  pKd: below the threshold
PARD3_3, Q8TEW0; [1]
  pKd: 3.59
Inadl_4, Q8NI35; [1]
  pKd: below the threshold
HTRA1, Q92743; [1]
  pKd: 4.17
TJP2_1, Q9UDY2; [1]
  pKd: below the threshold
Inadl_5, Q8NI35; [1]
  pKd: below the threshold
GRASP, Q7Z6J2; [1]
  pKd: 4.09
LIN7B, Q9HAP6; [1]
  pKd: 3.66
Inadl_3, Q8NI35; [1]
  pKd: below the threshold
SCRIB_2, Q14160; [1]
  pKd: below the threshold
MAGI3_2, Q5TCQ9; [1]
  pKd: below the threshold
GRIP2_3, Q9C0E4; [1]
  pKd: below the threshold
TX1BP3, O14907; [1]
  pKd: 3.85
AHNAK1, Q09666; [1]
  pKd: below the threshold
PTPN13_1, Q12923; [1]
  pKd: below the threshold
ARHGEF11, O15085; [1]
  pKd: 4.38

## SSRTRRETQL [HPV16-E6_-2P, P03126]
PDZD2_2, O15018; [2]
  pKd: below the threshold
PDZRN3_1, Q9UPQ7; [2]
  pKd: below the threshold
Inadl_10, Q8NI35; [2]
  pKd: below the threshold
LAP2, Q96RT1; [2]
  pKd: below the threshold
Inadl_8, Q8NI35; [2]
  pKd: below the threshold
PICK1, Q9NRD5; [2]
  pKd: below the threshold
SHANK1, Q9Y566; [2]
  pKd: below the threshold
LNX2_3, Q8N448; [2]
  pKd: below the threshold
GRIP1_2, Q9Y3R0; [2]
  pKd: below the threshold
SNTB1, Q13884; [2]
  pKd: below the threshold
DFNB31_2, Q9P202; [2]
  pKd: below the threshold
PARD3_3, Q8TEW0; [2]
  pKd: below the threshold
Inadl_4, Q8NI35; [2]
  pKd: below the threshold
HTRA1, Q92743; [2]
  pKd: below the threshold
TJP2_1, Q9UDY2; [2]
  pKd: below the threshold
Inadl_5, Q8NI35; [2]
  pKd: below the threshold
GRASP, Q7Z6J2; [2]
  pKd: below the threshold
LIN7B, Q9HAP6; [2]
  pKd: below the threshold
Inadl_3, Q8NI35; [2]
  pKd: below the threshold
SCRIB_2, Q14160; [2]
  pKd: below the threshold
MAGI3_2, Q5TCQ9; [2]
  pKd: below the threshold
GRIP2_3, Q9C0E4; [2]
  pKd: below the threshold
TX1BP3, O14907; [2]
  pKd: 3.98
AHNAK1, Q09666; [2]
  pKd: below the threshold
PTPN13_1, Q12923; [2]
  pKd: below the threshold
ARHGEF11, O15085; [2]
  pKd: below the threshold
